Sequences and labels used below:
B1: ZNF449 (parent)
chain: QLTGHQRIHSGEEPHKCPECGKRF
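Further: lentivirally expressed fusions sorted by FACS into six bins by GFP to DsRed ratio, PSI derived from sequencing read proportions per bin multiplied by bin number.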

Variants of B1 are the subject of the data set. Put plainly: protein stability index of a GFP-peptide fusion (GPS, HEK-293T) (PSI 1-6); higher = more stable. The settings on record: c terminus: a fixed tail appended.
QLTGHQRIHSGWEPHKCPECGKRF [E12W]: the protein stability index was 3.99.
Consider QLTGHQRIHSGQEPHKCPECGKRF [E12Q], for which the protein stability index was determined as 3.29.
Take QLTGHQRIHSGHEPHKCPECGKRF [E12H]: the protein stability index came out at 4.05.
For the variant QLTGHQRIHSGIEPHKCPECGKRF [E12I], the protein stability index turned out to be 3.63.
For QLTGHQRIHSGCEPHKCPECGKRF [E12C] the value was 3.35; for QLTGHQRIHSGNEPHKCPECGKRF [E12N], 4.21.
For QLTGHQRIHSGLEPHKCPECGKRF [E12L], the protein stability index came to 4.05.
In the case of QLTGHQRIHSGYEPHKCPECGKRF [E12Y], the protein stability index stood at 3.41.
To QLTGHQRIHSGSEPHKCPECGKRF [E12S] belongs 3.96.
As for QLTGHQRIHSGTEPHKCPECGKRF [E12T], the protein stability index is 3.43.
QLTGHQRIHSGDEPHKCPECGKRF [E12D]: the protein stability index was 4.15.
In the case of QLTGHQRIHSGGEPHKCPECGKRF [E12G], the protein stability index came out at 3.99.
For QLTGHQRIHSGPEPHKCPECGKRF [E12P] the value was 3.48; for QLTGHQRIHSGAEPHKCPECGKRF [E12A], 5.14; for QLTGHQRIHSGREPHKCPECGKRF [E12R], 4.01.
With QLTGHQRIHSGVEPHKCPECGKRF [E12V], the protein stability index amounted to 4.17.
For QLTGHQRIHSGKEPHKCPECGKRF [E12K] the value was 3.43; for QLTGHQRIHSGFEPHKCPECGKRF [E12F], 2.54; for QLTGHQRIHSGMEPHKCPECGKRF [E12M], 3.73.
Turning to QLTGHQRIHSGEEPHCCPECGKRF [K16C], the protein stability index is 3.84.
Regarding QLTGHQRIHSGEEPHACPECGKRF [K16A], the protein stability index was found to be 4.36.
To QLTGHQRIHSGEEPHFCPECGKRF [K16F] belongs 3.48.
To QLTGHQRIHSGEEPHDCPECGKRF [K16D] belongs 4.82; to QLTGHQRIHSGEEPHECPECGKRF [K16E], 4.69; to QLTGHQRIHSGEEPHGCPECGKRF [K16G], 3.97.
On to QLTGHQRIHSGEHPHKCPECGKRF [E13H], for which the protein stability index was 3.62.
For QLTGHQRIHSGEPPHKCPECGKRF [E13P], the protein stability index was determined as 4.1.
For QLTGHQRIHSGEFPHKCPECGKRF [E13F] the value was 3.09; for QLTGHQRIHSGELPHKCPECGKRF [E13L], 2.85.
As for QLTGHQRIHSGEKPHKCPECGKRF [E13K], the protein stability index was 4.59.
Turning to QLTGHQRIHSGEDPHKCPECGKRF [E13D], the protein stability index is 4.46.
For QLTGHQRIHSGEVPHKCPECGKRF [E13V], the protein stability index stood at 3.33.
To QLTGHQRIHSGERPHKCPECGKRF [E13R] belongs 3.54; to QLTGHQRIHSGECPHKCPECGKRF [E13C], 4.11.
For the variant QLTGHQRIHSGETPHKCPECGKRF [E13T], the protein stability index stood at 3.39.
For the variant QLTGHQRIHSGENPHKCPECGKRF [E13N], the protein stability index worked out at 3.42.
Turning to QLTGHQRIHSGEMPHKCPECGKRF [E13M], the protein stability index was found to be 3.57.
Turning to QLTGHQRIHSGEGPHKCPECGKRF [E13G], the protein stability index was found to be 4.09.
In the case of QLTGHQRIHSGEQPHKCPECGKRF [E13Q], the protein stability index came out at 3.63.
Turning to QLTGHQRIHSGEAPHKCPECGKRF [E13A], the protein stability index was found to be 4.21.
For QLTGHQRIHSGEIPHKCPECGKRF [E13I], the protein stability index is 3.97.
As to QLTGHQRIHSGEWPHKCPECGKRF [E13W], the protein stability index was 3.57.
Regarding QLTGHQRIHSGEYPHKCPECGKRF [E13Y], the protein stability index amounted to 3.15.
For QLTGHQRIHSGEEQHKCPECGKRF [P14Q], the protein stability index was found to be 4.75.
With QLTGHQRIHSGEEDHKCPECGKRF [P14D], the protein stability index is 4.84.
Turning to QLTGHQRIHSGEEYHKCPECGKRF [P14Y], the protein stability index came out at 4.65.
For the variant QLTGHQRIHSGEEHHKCPECGKRF [P14H], the protein stability index was determined as 3.88.
For QLTGHQRIHSGEELHKCPECGKRF [P14L] the value was 3.7.
Turning to QLTGHQRIHSGEEEHKCPECGKRF [P14E], the protein stability index came out at 4.09.
In the case of QLTGHQRIHSGEEAHKCPECGKRF [P14A], the protein stability index amounted to 4.33.
In the case of QLTGHQRIHSGEERHKCPECGKRF [P14R], the protein stability index was 3.75.
QLTGHQRIHSGEEVHKCPECGKRF [P14V]: the protein stability index amounted to 4.19.
Regarding QLTGHQRIHSGEEFHKCPECGKRF [P14F], the protein stability index came to 4.38.
For QLTGHQRIHSGEECHKCPECGKRF [P14C] the value was 4.22; for QLTGHQRIHSGEESHKCPECGKRF [P14S], 4.88; for QLTGHQRIHSGEEWHKCPECGKRF [P14W], 4.5.
To QLTGHQRIHSGEEMHKCPECGKRF [P14M] belongs 4.05; to QLTGHQRIHSGEEGHKCPECGKRF [P14G], 4.5.
Take QLTGHQRIHSGEENHKCPECGKRF [P14N]: the protein stability index was 4.49.
Regarding QLTGHQRIHSGEEKHKCPECGKRF [P14K], the protein stability index was 3.98.
On to QLTGHQRIHSGEEIHKCPECGKRF [P14I], for which the protein stability index was found to be 4.5.
On to QLTGHQRIHSGEEPTKCPECGKRF [H15T], for which the protein stability index was 4.52.
To QLTGHQRIHSGEEPRKCPECGKRF [H15R] belongs 3.76; to QLTGHQRIHSGEEPEKCPECGKRF [H15E], 4.28; to QLTGHQRIHSGEEPAKCPECGKRF [H15A], 4.68.
For QLTGHQRIHSGEEPKKCPECGKRF [H15K], the protein stability index worked out at 3.66.
Consider QLTGHQRIHSGEEPMKCPECGKRF [H15M], for which the protein stability index was found to be 3.68.
For QLTGHQRIHSGEEPSKCPECGKRF [H15S] the value was 4.06; for QLTGHQRIHSGEEPPKCPECGKRF [H15P], 3.94; for QLTGHQRIHSGEEPQKCPECGKRF [H15Q], 4.31.
With QLTGHQRIHSGEEPCKCPECGKRF [H15C], the protein stability index was 5.22.
For QLTGHQRIHSGEEPIKCPECGKRF [H15I] the value was 4.8; for QLTGHQRIHSGEEPLKCPECGKRF [H15L], 3.65.
For QLTGHQRIHSGEEPNKCPECGKRF [H15N], the protein stability index turned out to be 4.52.
Turning to QLTGHQRIHSGEEPFKCPECGKRF [H15F], the protein stability index is 4.22.
In the case of QLTGHQRIHSGEEPYKCPECGKRF [H15Y], the protein stability index is 4.3.
For QLTGHQRIHSGEEPVKCPECGKRF [H15V], the protein stability index worked out at 2.18.
As to QLTGHQRIHSVEEPHKCPECGKRF [G11V], the protein stability index stood at 3.64.
Consider QLTGHQRIHSTEEPHKCPECGKRF [G11T], for which the protein stability index amounted to 3.96.
For QLTGHQRIHSFEEPHKCPECGKRF [G11F] the value was 3.77; for QLTGHQRIHSKEEPHKCPECGKRF [G11K], 4.09; for QLTGHQRIHSQEEPHKCPECGKRF [G11Q], 4.01.
Turning to QLTGHQRIHSMEEPHKCPECGKRF [G11M], the protein stability index amounted to 3.21.
As to QLTGHQRIHSIEEPHKCPECGKRF [G11I], the protein stability index worked out at 3.52.
For the variant QLTGHQRIHSHEEPHKCPECGKRF [G11H], the protein stability index was determined as 4.23.
QLTGHQRIHSDEEPHKCPECGKRF [G11D]: the protein stability index is 4.5.
As to QLTGHQRIHSNEEPHKCPECGKRF [G11N], the protein stability index was 3.86.
Regarding QLTGHQRIHSWEEPHKCPECGKRF [G11W], the protein stability index came to 3.76.
Regarding QLTGHQRIHSREEPHKCPECGKRF [G11R], the protein stability index amounted to 4.14.
Take QLTGHQRIHSSEEPHKCPECGKRF [G11S]: the protein stability index amounted to 4.17.
Take QLTGHQRIHSPEEPHKCPECGKRF [G11P]: the protein stability index worked out at 4.25.
Consider QLTGHQRIHSEEEPHKCPECGKRF [G11E], for which the protein stability index is 4.75.
On to QLTGHQRIHSLEEPHKCPECGKRF [G11L], for which the protein stability index was found to be 3.87.
Take QLTGHQRIHSYEEPHKCPECGKRF [G11Y]: the protein stability index was found to be 3.87.

(Values after the supplement of paper PMC10567573.)
